What was measured:
[1] = biological target: Sea Lamprey PYY(1-36) (sea lamprey)
[2] = biological target: Trout PYY (trout)
[3] = biological target: Bowfin PYY (bowfin)
[4] = biological target: Human PYY(1-36) (human)
[5] = biological target: Sturgeon PYY(1-36) (sturgeon)

DPP-4 half-life [1]: > 8 h | DPP-4 half-life [2]: > 8 h | DPP-4 half-life [3]: > 8 h | DPP-4 half-life [4]: < 2 h | DPP-4 half-life [5]: > 8 h
Substance: purified DPP-4 (enzyme)

Source: US20260199429A1
